# Test results published in CN115353562A.
# B1: H5-3F5单克隆抗体 (antibody, V domains shown)
# VH: EVQLVESGGGLVQPGGSLRLSCAASGFSLSEAVSGWVRQAPGKGLEWVGVCNNRIPFYLTWCKLFRFTISKDNSKNTLYLQMNSLRAEDTAVYYCARQRSYCNFQPHPNGWGQGTLVTVSS
# VL: AYQMTQSPSSVSASVGDRVTITCGQNMMWIPAWLWYQQKPGKAPKLLIYETNGEHYGVPSRFSGSGSGTDFTLTISSLQPEDFATYYCMMMNARKSLQATKFGGGTKVEIK
# Experiments:
# [1] = biological target: H5N1 HA蛋白(BIOHJSW，货号orb-EHJ075488) (H5N1 avian influenza virus); assay: indirect ELISA, coated HA 5 μg/mL, hybridoma supernatant
# [2] = biological target: H3 HA; assay: as above
# [3] = biological target: H1 HA; assay: as above
# [4] = biological target: H5N1 HA蛋白(BIOHJSW，货号orb-EHJ075488) (H5N1 avian influenza virus)
binder,measurement,setting,value
B1,OD450,[1],2.62 OD450
same,OD450,[2],0.412 OD450
same,OD450,[3],0.231 OD450
same,Kd,[4],407 pM
